Measurements reported in paper PMC12684077.

Target: RSV prefusion F (PR-DM) (respiratory syncytial virus A) (UniProt P03420)
Experiment: cryo-EM structure

“RSV prefusion F (PR-DM) (from UniProt P03420) (complex)” showed a stoichiometry N of 3.
